Experimental data as given in US20210379147A1, “METHOD AND SYSTEM FOR TREATING CANCER UTILIZING TINAGL1” (The Trustees of Princeton University, priority 2018, published 2021).

What was measured:
EGFR = EGFR (Homo sapiens, UniProt P00533); assay: EGF-induced EGFR activation in LM2 cells (WB); type: cell-based; settings: 1 hour pre-treatment, then EGF 10 min
Procedure: FIG. 11A is an image of WB analyses where LM2 cells with or without 1 hour pre-treatment of the indicated amount of r-Tinagl1 were then treated with indicated amount of EGF for another 10 min, then lysed.
For WB analysis, cells were collected and lysed with IP lysis buffer described above. After boiled with SDS laemmli buffer, the samples were resolved with SDS-PAGE gel and immunoblotted with standard protocols.
Cells were treated with r-Tinagl1 and the activity of EGFR and integrin/FAK signaling pathways was evaluated. To test EGFR activation, the LM2 cells were subjected to EGF, r-Tinagl1, or EGF/r-Tinagl1 combined treatment. […] Referring to FIGS. 11B and 11C, EGF-dependent activation of EGFR was similarly attenuated in cells expressing Tinagl1 compared to control cells.

[1] = tested on: primary tumors and lung lesions; assay: IHC staining of primary tumors and lung samples for proliferation and apoptosis markers; type: in vivo, mice; settings: versus PBS
From the text: FIGS. 7A-7D are graphs indicating the percentage of Ki67^+ (FIGS. 7A and 7B) and cleaved caspase-3^+ (FIGS. 7C, 7D) cells counted in primary tumor (FIGS. 7A, 7C) and spontaneous lung metastasis (FIGS. 7B, 7D) samples from mice treated with r-Tinagl1(711, 721, 731, 741) or PBS (710, 720, 730, 740) collected for H&E and IHC staining with indicated antibodies.
To address how Tinagl1 inhibits primary tumor growth and metastasis, primary tumors and corresponding lung samples were stained for proliferation and apoptosis markers. […] Consistent results were also observed in the staining of the tissues collected from the mice injected with the SUM159-M1a cells.
TIC staining was performed as previously described (Wan et al., 2014). Briefly, Paraffin-embedded primary tumor or lung samples were sliced into 4 μm thickness. The slides were baked overnight at 60° C. Next, the tissue slides were washed with PBS after deparaffinization and hydration and then boiled in citrate buffer at 100° C. for 40 min. After treated with 3% H2O2 for 30 min to block endogenous peroxidase, slides were incubated at 4° C. overnight with Ki67 (Leica Biosystem, Ki67-MM1-L-CE-S), cleaved caspase-3 (Cell signaling, 9661S), p-EGFR (Cell signaling, 3777), p-FAK (Cell signaling, 8556), CD31 (Cell signaling, 77699), -SMA (Sigma, A5228), or Tinagl1 (Sigma, HPA048695) antibodies. […]

[2] = Toxicity assessment in r-Tinagl1 treated mice (body weight, CBC, H&E and Alcian blue staining, ALT, AST); type: in vivo; settings: ALT and AST activity
From the text: (§1) To test if recombinant Tinagl1 protein (r-Tiangl1) treatment would slow tumor progression, full length recombinant human Tinagl1 with 6×His tag at the C-terminus (r-Tinagl1) was expressed in HEK293T cells and r-Tinagl1 was purified from the culture media using Ni^2+-NTA purification system. r-Tinagl1 was used to treat orthotopically implanted mammary tumors.

[3] = tested on: orthotopically implanted mammary tumors; assay: r-Tinagl1 treatment of orthotopically implanted mammary tumors; type: in vivo, mice; settings: continuous treatment of r-Tinagl1 for 7 weeks
From the text: as §1
For xenograft studies, 8-weeks immunocompromised NOD Scid Gamma (NSG) or immunocompetent FVB females were used. Cells were suspended in 10 μl of PBS for mammary gland injection (MFP), or were suspended in 100 μl of PBS for intravenous injection. For human patient-derived xenograft (PDX, HCL001, kindly provided by Dr. Alana Welm) study, we followed the standard protocol for PDX transplantation, maintenance and digestion of the tumors (DeRose et al., 2011). 2×10^4 cells were suspended in 10 μl of PBS and subjected to MFP injection. […] Primary tumors were quantified once per week via caliper measurement. All cell lines used for lung metastasis experiments were stably labeled with a firefly luciferase expressing vector and were monitored by weekly bioluminescent imaging (BLI). At protocol-defined endpoints, lungs were dissected and fixed in bouin's solution and the metastatic lesions were counted.

B1: r-Tinagl1: full length recombinant human Tinagl1 with 6×His tag at the C-terminus [SEQ ID NO.: 24], expressed in HEK293T cells (protein, listed as Homo sapiens)
chain: MWRCPLGLLLLLPLAGHLALGAQQGRGRRELAPGLHLRGIRDAGGRYCQEQDLCCRGRADDCALPYLGAICYCDLFCNRTVSDCCPDFWDFCLGVPPPFPPIQGCMHGGRIYPVLGTYWDNCNRCTCQENRQWQCDQEPCLVDPDMIKAINQGNYGWQAGNHSAFWGMTLDEGIRYRLGTIRPSSSVMNMHEIYTVLNPGEVLPTAFEASEKWPNLIHEPLDQGNCAGSWAFSTAAVASDRVSIHSLGHMTPVLSPQNLLSCDTHQQQGCRGGRLDGAWWFLRRRGVVSDHCYPFSGRERDEAGPAPPCMMHSRAMGRGKRQATAHCPNSYVNNNDIYQVTPVYRLGSNDKEIMKELMENGPVQALMEVHEDFFLYKGGIYSHTPVSLGRPERYRRHGTHSVKITGWGEETLPDGRTLKYWTAANSWGPAWGERGHFRIVRGVNECDIESFVLGVWGRVGMEDMGHHVDHHHHHH
modifications: C-terminal 6xHis tag
- EGF-induced EGFR activation (EGFR): dramatically attenuated
- Ki67+ cells [1]: significantly fewer
- cleaved caspase-3+ apoptotic cells [1]: no difference
- hematologic, GI tract, and liver toxicity [2]: no significant hematologic, GI tract, and liver toxicity
- hematologic, GI tract, and liver toxicity ([2]; listed as recombinant Tinagl1 protein): without causing significant toxicity
- primary tumor growth [3]: significantly inhibited
- spontaneous lung metastasis [3]: significantly inhibited
